Assay results taken from article PMC7380208.

Biological target: Recombinant SARS-CoV-2 spike protein ectodomain, native glycosylation (SARS-CoV-2) (UniProt P0DTC2)
Experiment: ELISA

Flt3 Receptor Interacting Lectin (FRIL) from Lablab purpureus (from UniProt Q9ZTA9) (natural protein)
lowest FRIL concentration at which binding was seen: 10 ng/mL
